Columns and labels:
[1] = test system: peptide WHWLQLKPGQPMY (SEQ ID NO:26); settings: as described by Blinkovsky et al., Biochimica et Biophysica Acta 1480 (2000) 171-181; cited from earlier work
[2] = test system: peptide WHWLQLKPGQPMY (SEQ ID NO:26); assay: Hydrolysis of proline containing peptide, LC-MS; assay type: biochemical; settings: peptide 1 mg/mL, aminopeptidase 1 ug/mL, CPB-Buffer, 55° C.; FIG. 5-7
Experimental: The peptide […] (SEQ ID NO:26) was hydrolysed with TRI03 and TRI035. The peptide (1 mg/mL) was incubated with 1 ug/mL of the aminopeptidase in 20 mM CPB-Buffer (20 mM Citric acid, 20 mM Phosphate. 20 mM Boric acid) at 55° C. Aliquots (50 μL) were stopped with 50 rel 5% TFA at the indicated time points and subjected to LC-MS analysis.
Capillary LC-MS/MS analyses were performed using an Agilent 1100 LC system (Agilent Technologies) interfaced to a LTQ Orbitrap Classic hybrid mass spectrometer (Thermo Scientific, Bremen, Germany). Samples were loaded onto a 15 cm Phenomenix Jupiter 4μ Proteo 90A, C4 analytical column. Separation was performed at a flow rate of 16 μL/min using a 10 min gradient of 0-40% Solvent B H2O/CH3CN/HCOOH (50/950/0.65 v/v/v) into the IONMAX® ion source (Thermo Scientific, San Jose). The LTQ Orbitrap Classic instrument was operated in a data-dependent MS/MS mode. The peptide masses were measured by the Orbitrap (MS scans were obtained with a resolution of 60 000 at m/z 400), and up to 2 of the most intense peptide m/z were selected and subjected to fragmentation using CID in the linear ion trap (LTQ). Dynamic exclusion was enabled with a list size of 500 masses, duration of 40 s, and an exclusion mass width of ±10 ppm relative to masses on the list.
The RAW files were accessed with the program Skyline 2.6.0.7176 (MacLean, B., et al., “Skyline: an open source document editor for creating and analyzing targeted proteomics experiments”, Bioinformatics, 2010, 26(7): p. 966-8) which uses the MS1 intensities to build chromatograms (Schilling, B., et al., “Platform-independent and label-free quantitation of proteomic data using MS1 extracted ion chromatograms in skyline: application to protein acetylation and phosphorylation”, Mol Cell Proteomics, 2012. 11(5): p. 202-14). The precursor isotopic import filter was set to a count of three, (M, M+1, and M+2) at a resolution of 60,000 and the most intense charge state was used. Peptide sequences of the substrate as well as cleavage products were typed into Skyline and intensities were calculated in each sample. […]

B1: Aspergillus oryzae PepN 2: Aspergillus oryzae PepN 2 described by A. M. Blinkovsky et al., Biochimica et Biophysica Acta 1480 (2000) 171-181 (protein)
chain: RALVSPDEFPEDIQLEDLLEGSQQLEDFAYAYPERNRVFGGKAHDDTVNYLYEELKKTGYYDVYKQPQVHLWSNADQTLKVGDEEIEAKTMTYSPSVEVTADVAVVKNLGCSEADYPSDVEGKVALIKRGECPFGDKSVLAAKAKAAASIVYNNVAGSMAGTLGAAQSDKGPYSAIVGISLEDGQKLIKLAEAGSVSVDLWVDSKQENRTTYNVVAQTKGGDPNNVVALGGHTDSVEAGPGINDDGSGIISNLVIAKALTQYSVKNAVRFLFWTAEEFGLLGSNYYVSHLNATELNKIRLYLNFDMIASPNYALMIYDGDGSAFNQSGPAGSAQIEKLFEDYYDSIDLPHIPTQFDGRSDYEAFILNGIPSGGLFTGAEGIMSEENASRWGGQAGVAYDANYHAAGDNMTNLNHEAFLINSKATAFAVATYANDLSSIPKRNTTSSLHRRARTMRPFGKRAPKTHAHVSGSGCWHSQVEA
- hydrolysis of X-Pro bonds including those of WHWLQLKPGQPMY [1]: does not hydrolyze
- hydrolysis of WHWLQLKPGQPMY to KPGQPMY and further down to QPMY [2]: cleaves the peptide down to QPMY

From patent US11473073B2, “Aminopeptidases for protein hydrolyzates” (DUPONT NUTRITION BIOSCIENCES APS, priority 2015, dated 2022)
